In paper PMC10397247:
Values belong to the binder of their own block, whether it stands above or below them.

Key:
4H4038-bN = target: T1, 4H4038-bN; test: two-hybrid library CCNG1;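 also: natural log of median RNA to DNA barcode read ratio; higher means stronger binding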
T1 chain: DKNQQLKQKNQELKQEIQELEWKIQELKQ

4H454-bN = target: T2, 4H454-bN; test: two-hybrid library CCNG1;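 also: natural log of median RNA to DNA barcode read ratio; higher means stronger binding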
T2 chain: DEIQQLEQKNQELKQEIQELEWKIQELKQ

4H1387-bN = target: T3, 4H1387-bN; test: two-hybrid library CCNG1;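 also: natural log of median RNA to DNA barcode read ratio; higher means stronger binding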
T3 chain: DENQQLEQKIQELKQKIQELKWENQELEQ

4H2162-bN = target: T4, 4H2162-bN; test: two-hybrid library CCNG1;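 also: natural log of median RNA to DNA barcode read ratio; higher means stronger binding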
T4 chain: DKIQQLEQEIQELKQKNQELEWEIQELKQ

4H3592-bN = target: T5, 4H3592-bN; test: two-hybrid library CCNG1;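 also: natural log of median RNA to DNA barcode read ratio; higher means stronger binding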
T5 chain: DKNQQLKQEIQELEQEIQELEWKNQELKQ

4H1406-bN = target: T6, 4H1406-bN; test: two-hybrid library CCNG1;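 also: natural log of median RNA to DNA barcode read ratio; higher means stronger binding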
T6 chain: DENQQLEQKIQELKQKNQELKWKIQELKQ

4H3907-bN = target: T7, 4H3907-bN; test: two-hybrid library CCNG1
T7 chain: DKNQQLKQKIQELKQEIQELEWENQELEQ

4H3601-bN = target: T8, 4H3601-bN; test: two-hybrid library CCNG1
T8 chain: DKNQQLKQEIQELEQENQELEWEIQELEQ

4H347-AA = target: T9, 4H347-AA; test: two-hybrid library CCmax; settings: mean of both orientations
T9 chain: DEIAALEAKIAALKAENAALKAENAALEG

4H2504-AA = target: T10, 4H2504-AA; test: two-hybrid library CCmax
T10 chain: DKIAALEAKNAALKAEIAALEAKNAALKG

4H249-AA = target: T11, 4H249-AA; test: two-hybrid library CCmax; settings: mean of both orientations
T11 chain: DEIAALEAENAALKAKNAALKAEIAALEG

4H3381-AA = target: T12, 4H3381-AA; test: two-hybrid library CCmax; settings: mean of both orientations
T12 chain: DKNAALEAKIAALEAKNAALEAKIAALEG

4H2611-AA = target: T13, 4H2611-AA; test: two-hybrid library CCmax; settings: mean of both orientations
T13 chain: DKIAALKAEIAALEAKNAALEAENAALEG

4H2219-AA = target: T14, 4H2219-AA; test: two-hybrid library CCmax; settings: mean of both orientations
T14 chain: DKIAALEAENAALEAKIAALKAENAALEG

4H1738-AA = target: T15, 4H1738-AA; test: two-hybrid library CCmax
T15 chain: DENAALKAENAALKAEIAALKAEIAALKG

4H3340-AA = target: T16, 4H3340-AA; test: two-hybrid library CCmax; settings: mean of both orientations
T16 chain: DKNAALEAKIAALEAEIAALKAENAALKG

4H3493-AA = target: T17, 4H3493-AA; test: two-hybrid library CCmax; settings: mean of both orientations
T17 chain: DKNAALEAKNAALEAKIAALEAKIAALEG

4H2592-AA = target: T18, 4H2592-AA; test: two-hybrid library CCmax; settings: mean of both orientations
T18 chain: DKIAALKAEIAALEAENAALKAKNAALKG

4H2774-AA = target: T19, 4H2774-AA; test: two-hybrid library CCmax; settings: mean of both orientations
T19 chain: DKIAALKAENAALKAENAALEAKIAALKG

4H406-AA = target: T20, 4H406-AA; test: two-hybrid library CCmax; settings: mean of both orientations
T20 chain: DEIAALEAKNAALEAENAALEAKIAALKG

4H376-AA = target: T21, 4H376-AA; test: two-hybrid library CCmax; settings: mean of both orientations
T21 chain: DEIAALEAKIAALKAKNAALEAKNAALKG

4H3001-AA = target: T22, 4H3001-AA; test: two-hybrid library CCmax; settings: mean of both orientations
T22 chain: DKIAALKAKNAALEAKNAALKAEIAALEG

4H963-AA = target: T23, 4H963-AA; test: two-hybrid library CCmax; settings: mean of both orientations
T23 chain: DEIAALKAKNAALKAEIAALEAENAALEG

4H688-AA = target: T24, 4H688-AA; test: two-hybrid library CCmax; settings: mean of both orientations
T24 chain: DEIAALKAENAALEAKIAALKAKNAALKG

4H797-bN = target: T25, 4H797-bN; test: two-hybrid library CCNG1
T25 chain: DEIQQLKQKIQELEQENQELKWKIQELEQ

4H3843-bN = target: T26, 4H3843-bN; test: two-hybrid library CCNG1
T26 chain: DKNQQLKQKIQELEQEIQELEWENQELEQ

4H607-bN = target: T27, 4H607-bN; test: two-hybrid library CCNG1
T27 chain: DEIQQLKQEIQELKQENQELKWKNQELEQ

4H2610-bN = target: T28, 4H2610-bN; test: two-hybrid library CCNG1
T28 chain: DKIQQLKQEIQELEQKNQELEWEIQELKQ

4H462-bN = target: T29, 4H462-bN; test: two-hybrid library CCNG1
T29 chain: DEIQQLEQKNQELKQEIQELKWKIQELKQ

4H3189-bN = target: T30, 4H3189-bN; test: two-hybrid library CCNG1
T30 chain: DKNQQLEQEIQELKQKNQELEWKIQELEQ

4H331-bN = target: T31, 4H331-bN; test: two-hybrid library CCNG1
T31 chain: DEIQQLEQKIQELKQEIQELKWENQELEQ

4H687-bN = target: T32, 4H687-bN; test: two-hybrid library CCNG1
T32 chain: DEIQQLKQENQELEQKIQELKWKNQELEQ

4H1369-bN = target: T33, 4H1369-bN; test: two-hybrid library CCNG1
T33 chain: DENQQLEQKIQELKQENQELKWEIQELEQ

4H1845-bN = target: T34, 4H1845-bN; test: two-hybrid library CCNG1
T34 chain: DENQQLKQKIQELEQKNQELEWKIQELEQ

4H918-bN = target: T35, 4H918-bN; test: two-hybrid library CCNG1
T35 chain: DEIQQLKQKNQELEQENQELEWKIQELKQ

4H967-bN = target: T36, 4H967-bN; test: two-hybrid library CCNG1
T36 chain: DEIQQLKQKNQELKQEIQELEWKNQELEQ

4H4001-bN = target: T37, 4H4001-bN; test: two-hybrid library CCNG1
T37 chain: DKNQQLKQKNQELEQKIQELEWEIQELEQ

4H370-bN = target: T38, 4H370-bN; test: two-hybrid library CCNG1
T38 chain: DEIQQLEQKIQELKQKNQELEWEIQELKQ

4H2576-bN = target: T39, 4H2576-bN; test: two-hybrid library CCNG1
T39 chain: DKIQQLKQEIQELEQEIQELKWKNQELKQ

4H3782-bN = target: T40, 4H3782-bN; test: two-hybrid library CCNG1
T40 chain: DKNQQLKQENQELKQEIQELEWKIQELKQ

4H72-bN = target: T41, 4H72-bN; test: two-hybrid library CCNG1
T41 chain: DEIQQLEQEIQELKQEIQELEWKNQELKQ

4H2697-bN = target: T42, 4H2697-bN; test: two-hybrid library CCNG1
T42 chain: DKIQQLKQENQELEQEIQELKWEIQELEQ

4H1446-bN = target: T43, 4H1446-bN; test: two-hybrid library CCNG1
T43 chain: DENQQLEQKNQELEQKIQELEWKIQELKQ

4H2667-bN = target: T44, 4H2667-bN; test: two-hybrid library CCNG1
T44 chain: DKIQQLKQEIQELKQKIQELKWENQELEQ

4H3606-bN = target: T45, 4H3606-bN; test: two-hybrid library CCNG1
T45 chain: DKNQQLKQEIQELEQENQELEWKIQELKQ

4H2162-bA = target: T46, 4H2162-bA; test: two-hybrid library CCNG1
T46 chain: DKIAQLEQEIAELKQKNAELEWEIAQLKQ

4H883-bN = target: T47, 4H883-bN; test: two-hybrid library CCNG1
T47 chain: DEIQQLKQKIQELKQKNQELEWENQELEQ

4H953-bN = target: T48, 4H953-bN; test: two-hybrid library CCNG1
T48 chain: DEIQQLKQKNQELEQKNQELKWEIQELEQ

4H568-bN = target: T49, 4H568-bN; test: two-hybrid library CCNG1
T49 chain: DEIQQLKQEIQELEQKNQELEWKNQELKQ

4H908-bH = target: T50, 4H908-bH; test: two-hybrid library CCNG1
T50 chain: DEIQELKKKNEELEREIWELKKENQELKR

4H918-bH = target: T51, 4H918-bH; test: two-hybrid library CCNG1
T51 chain: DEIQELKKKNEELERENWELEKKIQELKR

O10-bH = target: T52, O10-bH; test: two-hybrid library CCNG1
T52 chain: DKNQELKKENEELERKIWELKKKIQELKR

4H953-bH = target: T53, 4H953-bH; test: two-hybrid library CCNG1
T53 chain: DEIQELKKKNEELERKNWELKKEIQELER

4H687-bH = target: T54, 4H687-bH; test: two-hybrid library CCNG1
T54 chain: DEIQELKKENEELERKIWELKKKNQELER

4H797-bH = target: T55, 4H797-bH; test: two-hybrid library CCNG1
T55 chain: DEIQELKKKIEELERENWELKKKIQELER

4H717-bH = target: T56, 4H717-bH; test: two-hybrid library CCNG1
T56 chain: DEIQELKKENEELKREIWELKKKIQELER

4H967-bH = target: T57, 4H967-bH; test: two-hybrid library CCNG1
T57 chain: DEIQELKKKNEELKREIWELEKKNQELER

4H754-bH = target: T58, 4H754-bH; test: two-hybrid library CCNG1
T58 chain: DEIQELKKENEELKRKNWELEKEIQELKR

4H883-bH = target: T59, 4H883-bH; test: two-hybrid library CCNG1
T59 chain: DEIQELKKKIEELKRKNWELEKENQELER

4H72-bH = target: T60, 4H72-bH; test: two-hybrid library CCNG1
T60 chain: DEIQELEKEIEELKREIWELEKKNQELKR

interaction score (4H4038-bN): 0.464 | interaction score (4H454-bN): -0.28 | interaction score (4H1387-bN): -1.9 | interaction score (4H2162-bN): -2.27 | interaction score (4H3592-bN): 0.94 | interaction score (4H1406-bN): -0.625 | interaction score (4H3907-bN): 1.31 | interaction score (4H3601-bN): -0.293
Binder: DENQQLEQKIQELKQKIQELKWENQELEQ [4H1387-bN]

interaction score (4H347-AA): -1.67 | interaction score (4H2504-AA): -1.96 | interaction score (4H249-AA): -1.2 | interaction score (4H3381-AA): -1.45 | interaction score (4H2611-AA): -1.52 | interaction score (4H2219-AA): -1.76 | interaction score (4H1738-AA): 1.65 | interaction score (4H3340-AA): -1.31 | interaction score (4H3493-AA): -1.11 | interaction score (4H2592-AA): -1.14 | interaction score (4H2774-AA): -1.15 | interaction score (4H406-AA): -1.49 | interaction score (4H376-AA): -1.75 | interaction score (4H3001-AA): -1.39 | interaction score (4H963-AA): -1.8 | interaction score (4H688-AA): -1.24
Binder: DENAALKAENAALKAEIAALKAEIAALKG [4H1738-AA]

interaction score (4H797-bN): -1.65 | interaction score (4H3843-bN): -1.02 | interaction score (4H607-bN): -0.655 | interaction score (4H2610-bN): -0.97 | interaction score (4H462-bN): -1.07 | interaction score (4H3189-bN): -0.697 | interaction score (4H331-bN): -1.16 | interaction score (4H687-bN): -1.7 | interaction score (4H1369-bN): -0.802 | interaction score (4H1845-bN): -1.4 | interaction score (4H918-bN): -0.868 | interaction score (4H967-bN): -0.997 | interaction score (4H4001-bN): -0.815 | interaction score (4H370-bN): -1.79 | interaction score (4H2576-bN): -0.023 | interaction score (4H3782-bN): -1.06 | interaction score (4H72-bN): -1.26 | interaction score (4H2697-bN): -0.852 | interaction score (4H1446-bN): -2.34 | interaction score (4H2667-bN): -1.23 | interaction score (4H3606-bN): 0.215 | interaction score (4H2162-bA): -0.463 | interaction score (4H883-bN): -1.19 | interaction score (4H953-bN): -1.2 | interaction score (4H568-bN): -1.26
Binder: DENQQLEQKIQELKQENQELKWEIQELEQ [4H1369-bN]

interaction score (4H908-bH): -0.414 | interaction score (4H918-bH): -0.146 | interaction score (O10-bH): -0.602 | interaction score (4H953-bH): -0.5 | interaction score (4H687-bH): 0 | interaction score (4H797-bH): -0.897 | interaction score (4H717-bH): -0.0944 | interaction score (4H967-bH): 1.63 | interaction score (4H754-bH): -0.221 | interaction score (4H883-bH): 0.0397 | interaction score (4H72-bH): 0.182
Binder: DEIQELKKENEELERKIWELKKKNQELER [4H687-bH]
